For ten molecules, NAv bkgd results are on record in US20240376226A1.

Chain of neutravidin (P02701 25-152): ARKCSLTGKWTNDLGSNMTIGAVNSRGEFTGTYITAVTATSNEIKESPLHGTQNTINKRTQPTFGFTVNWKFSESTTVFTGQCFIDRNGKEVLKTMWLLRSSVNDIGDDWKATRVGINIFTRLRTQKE

The assay has as its target neutravidin (UniProt P02701). Briefly: phage ELISA, neutravidin alone. (An ELISA detects its analyte on a solid surface through an enzyme-linked reagent.)
For the molecule GGQGCGTIADPEPHCW (peptide, not shown: large carriers) [Phage clone J466C02 displaying Peptide-25], the NAv bkgd is 0.061.

For GGLECFDPEIPEAFCI (peptide, not shown: large carriers) [Phage clone J466C07 displaying Peptide-24], the NAv bkgd was found to be 0.053.

Regarding GGNCHDPDIPAYVLCS (peptide, not shown: large carriers) [Phage clone J479B08 displaying Peptide-26], the NAv bkgd is 0.084.

GGEWCLFDPDVPTCQD (peptide, not shown: large carriers) [Phage clone J465F09 displaying Peptide-22] showed an NAv bkgd of 0.051.

Consider GGLGCNDIDPGEQCIV (peptide, not shown: large carriers) [Phage clone J465D07 displaying Peptide-23], for which the NAv bkgd is 0.055.

GGDSVCADPEVPICEI (peptide, not shown: large carriers) [Phage clone J476C07 displaying Peptide-19] returned an NAv bkgd of 0.051.

For the molecule GGLCMIGDWLPGDVCL (peptide, not shown: large carriers) [Phage clone J467D04 displaying Peptide-28], the NAv bkgd is 0.058.

As for GGMSDCGDPGVEICTH (peptide, not shown: large carriers) [Phage clone J457A04 displaying Peptide-20], the NAv bkgd is 0.092.

GGLCPINDWEPQDICW (peptide, not shown: large carriers) [Phage clone J467F08 displaying Peptide-27] gave an NAv bkgd of 0.062.

As for GGIQCHDPDLPSPCYI (peptide, not shown: large carriers) [Phage clone J465E03 displaying Peptide-21], the NAv bkgd is 0.052.
